The target of assay [1] is T1, PLC-γ1 (Phospholipase C-γ1), 1–1219 (UniProt P19174 1-1219).
T1 construct: the text calls it full length PLC-γ1; also called full length PLC-γ1
T1 sequence (looked up): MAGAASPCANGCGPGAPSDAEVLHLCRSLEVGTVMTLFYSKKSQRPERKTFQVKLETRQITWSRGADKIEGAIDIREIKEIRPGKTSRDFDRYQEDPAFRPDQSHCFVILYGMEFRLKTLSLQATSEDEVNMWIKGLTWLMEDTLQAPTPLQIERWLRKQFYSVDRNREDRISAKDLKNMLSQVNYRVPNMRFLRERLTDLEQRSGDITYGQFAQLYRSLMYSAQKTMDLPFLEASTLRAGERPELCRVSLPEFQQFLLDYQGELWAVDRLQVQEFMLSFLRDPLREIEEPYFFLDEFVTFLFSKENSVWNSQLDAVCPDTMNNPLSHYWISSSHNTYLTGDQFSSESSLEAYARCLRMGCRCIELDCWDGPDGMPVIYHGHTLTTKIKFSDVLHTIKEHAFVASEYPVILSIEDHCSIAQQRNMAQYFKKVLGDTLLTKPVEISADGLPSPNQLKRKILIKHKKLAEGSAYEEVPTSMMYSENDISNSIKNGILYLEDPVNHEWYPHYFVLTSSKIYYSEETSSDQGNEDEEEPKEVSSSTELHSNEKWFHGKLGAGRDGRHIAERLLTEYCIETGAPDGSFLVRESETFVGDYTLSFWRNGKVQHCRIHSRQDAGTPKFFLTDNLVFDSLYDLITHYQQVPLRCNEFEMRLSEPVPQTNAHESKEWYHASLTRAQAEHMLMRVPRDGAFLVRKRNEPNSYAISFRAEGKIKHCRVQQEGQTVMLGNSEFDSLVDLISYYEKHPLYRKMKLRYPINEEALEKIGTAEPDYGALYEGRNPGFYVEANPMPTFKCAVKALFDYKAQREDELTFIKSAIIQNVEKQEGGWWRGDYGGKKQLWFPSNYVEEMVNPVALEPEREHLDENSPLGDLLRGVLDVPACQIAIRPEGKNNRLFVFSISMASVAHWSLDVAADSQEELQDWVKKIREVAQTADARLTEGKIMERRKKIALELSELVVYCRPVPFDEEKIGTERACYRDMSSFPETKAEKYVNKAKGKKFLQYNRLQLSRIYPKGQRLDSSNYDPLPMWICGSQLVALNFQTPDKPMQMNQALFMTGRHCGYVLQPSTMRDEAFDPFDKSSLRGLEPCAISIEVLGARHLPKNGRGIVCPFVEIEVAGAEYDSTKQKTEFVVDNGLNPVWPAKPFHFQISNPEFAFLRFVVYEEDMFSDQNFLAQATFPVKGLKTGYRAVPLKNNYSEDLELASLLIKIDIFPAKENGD
Put plainly: ITC; VP-ITC; 5°C; 20 mM Hepes (pH 7.4), 100 mM NaCl, 0.1 mM DTT; 4 μM in the cell, 40 μM in the syringe; single binding site fit with 1:1 stoichiometry; 3 independent experiments. Particulars: both partners purified. For orientation: In ITC the heat of successive injections is recorded.

The target in assay [2] is T1, PLC-γ1 (Phospholipase C-γ1), 1–1219. Put plainly: cell-based or functional assay.

This is an account of results in article doi:10.1101/2025.09.11.675682, “Weak SLP-76-PLC-γ1 interaction in the LAT-nucleated multi-protein complex fine-tunes TCR signal strength to optimize T cell responsiveness” (bioRxiv, 2025).

A word on the Kd: it is the equilibrium constant for the complex coming apart. Higher therefore signals weaker binding.

B1: SLP-76 PRR peptide (aa 185–200), wild type (peptide, UniProt Q13094 185-200, looked up)
peptide: QPPVPPQRPMAALPPP
notes: SLP-76 proline-rich region, residues 185–200; also called SLP-76 185–200 (WT); SLP-76 PRR_(185–200) peptide
Consider B1, for which, in assay [1], the Kd is 3.99 µM and the dH was -3.3 kcal/mol.

B2: SLP-76^WT polypeptide (aa 103–258, Y113F, Y173F) (domain or fragment, UniProt Q13094 103-258, looked up)
chain: GGWSSFEEDDFESPNDDQDGEDDGDYESPNEEEEAPVEDDADYEPPPSNDEEALQNSILPAKPFPNSNSMFIDRPPSGKTPQQPPVPPQRPMAALPPPPAGRNHSPLPPPQTNHEEPSRSRNHKTAKLPAPSIDRSTKPPLDRSLAPFDREPFTLG
notes: wild-type proline-rich region; not shown: His6, N-terminal, cleaved; GST, N-terminal, cleaved
As for B2, in assay [2], the “PLC-γ1 activity (IP3 from PIP2-bearing liposomes): LAT-Gads-SLP-76^WT-PLC-γ1 tetramer against PLC-γ1 with phospho-LAT alone” value amounted to 1.7 fold. In assay [1], this molecule returned an equilibrium dissociation constant (Kd) of 2.32 µM and a dH of -3.8 kcal/mol.
